From paper PMC6399465
pKd: −log10 of the molar value.

Target: biotinylated IRF3-Flag (UniProt Q14653)
Test: BLI; Forte-Bio Octet Red; 10 ug/ml biotinylated IRF3-Flag coupled to biosensors, immersed in ICP27-Flag (50, 200, 500 or 800 nM); proteins in PBS

Sequence of UniProt Q14653 (Q14653 whole entry): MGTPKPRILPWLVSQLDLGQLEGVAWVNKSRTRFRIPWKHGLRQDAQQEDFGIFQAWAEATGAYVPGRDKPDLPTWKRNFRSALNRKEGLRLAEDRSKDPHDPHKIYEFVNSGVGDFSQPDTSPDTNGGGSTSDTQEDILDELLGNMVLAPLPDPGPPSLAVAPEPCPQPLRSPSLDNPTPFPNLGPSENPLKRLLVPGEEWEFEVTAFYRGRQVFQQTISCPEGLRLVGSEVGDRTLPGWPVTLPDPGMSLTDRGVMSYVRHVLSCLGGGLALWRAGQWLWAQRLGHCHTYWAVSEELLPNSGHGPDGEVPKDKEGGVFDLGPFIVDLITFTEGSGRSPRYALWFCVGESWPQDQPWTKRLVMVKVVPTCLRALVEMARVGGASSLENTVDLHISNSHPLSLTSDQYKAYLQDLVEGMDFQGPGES

ICP27-Flag (purified from HEK 293F) (from UniProt P28276 1-512) (natural protein)
pKd: 7.69
